# “Also recorded” adds a separate entry of the source.
# T1: human CIB2 (Homo sapiens, UniProt O75838)
# T1 construct: made in house
# T1 sequence (O75838 1-187): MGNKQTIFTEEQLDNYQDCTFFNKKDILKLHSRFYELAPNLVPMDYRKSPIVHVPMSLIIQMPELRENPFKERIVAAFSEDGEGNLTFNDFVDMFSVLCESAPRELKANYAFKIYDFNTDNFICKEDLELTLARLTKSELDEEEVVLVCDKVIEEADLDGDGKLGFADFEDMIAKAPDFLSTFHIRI
# How the values were obtained:
# [1] = test system: Trypsin; assay: Limited proteolysis of CIB2 with trypsin; conditions: 30 min, 25 °C, 25 µM CIB2, trypsin 1:100, SDS-PAGE
# Protocol: Figure 5 CIB2 limited proteolysis. (A) 10 µM CIB2 was incubated at 25 °C in the presence of 1 mM EDTA (Apo), 500 µM EGTA + 1 mM Mg^2+ (Mg^2+) and 1 mM Mg^2+ + 2 mM Ca^2+ for 10 minutes at 25 °C. Samples were boiled and loaded in a 18% SDS polyacrylamide gel. (B) Limited proteolysis was performed incubating trypsin with 25 µM CIB2 in the same concentrations of ions used for (A) (protein:enzyme ratio was 100:1). Samples were collected at different times, boiled and loaded on a 18% SDS-PAGE. Both gels run for 45–50 min, then they were Coomassie Blue-stained. The figure results from two separate gels, which have been reported in full length in Fig. S6.
# Limited proteolysis experiments were performed incubating 25 µM CIB2 in the presence of Trypsin (Sigma) in a ratio 1:100 enzyme:CIB2 at 25 °C. Three conditions were tested: 1 mM EDTA, 500 µM EGTA + 1 mM Mg^2+ and 1 mM Mg^2+ + 2 mM Ca^2+. Time-resolved proteolysis patterns are reported in Supplementary Materials (Fig. S2), results shown in Fig. 5 refer to reactions stopped after 5 min and 30 min. Proteolysis products were loaded on a 15% or 18% SDS gel, as indicated.
# His-tagged proteins, and then blocked via amine coupling as explained above. Preparation of the […]
# approximately 2250 RU of CIB2 immobilized. […]
# [2] = target: T1, human CIB2; assay: SPR CIB2 dimerization; assay type: binding; conditions: amine-coupled CIB2 (130 RU and 226 RU), CIB2 92 nM – 46 μM injected; Ca^2+ and Mg^2+
# Source text: SPR is a powerful and versatile technique to detect at real time biomolecular interactions, and it can be applied to study protein oligomerization, in particular dimerization, when care is taken to immobilize on the surface of a sensor chip low amounts of proteins under controlled conditions[27]–[29]. Two independent experiments were run following low levels of amine-coupling of CIB2 (130 RU and 226 RU, respectively) on the surface of a sensor chip. […]
# by summing the volume of each residue and correcting the final volume for electrostriction as explained in Ref.4, therefore the specific volume for Rec, CaM and CIB2 were 0.712, 0.694 and 0.715 cm3/g respectively. The molecular weight used for the estimation of hydrodynamic diameter was calculated based on the effective protein sequence of each pdb file using Protein Calculator 3.4 (http://protcalc.sourceforge.net/).
# Surface plasmon resonance analysis
# A SensiQ Pioneer surface plasmon resonance instrument (FortéBio Pall) was employed for the investigation of the CIB2 dimerization and for the real-time monitoring of its interaction with selected peptides. For studies of on-chip CIB2 dimerization, HBS buffer (20 mM HEPES, pH 7.5, 150 mM KCl, 1 mM MgCl2, 50 µM EDTA, 0.005% Tween 20), was used both as immobilization and running buffer, with the addition of fresh 1 mM DTT just before each experiment. […]
molecule,measurement,setting,value
"CIB2: Recombinant human CIB2, Ca^2+ and Mg^2+-binding protein (protein, left off: His tag, end not stated, cleaved) MGNKQTIFTEEQLDNYQDCTFFNKKDILKLHSRFYELAPNLVPMDYRKSPIVHVPMSLIIQMPELRENPFKERIVAAFSEDGEGNLTFNDFVDMFSVLCESAPRELKANYAFKIYDFNTDNFICKEDLELTLARLTKSELDEEEVVLVCDKVIEEADLDGDGKLGFADFEDMIAKAPDFLSTFHIRI",native band after trypsin,[1]; 1 mM EDTA (apo),completely lost
same,native band after trypsin,[1]; 1 mM Mg^2+ or 1 mM Mg^2+ + 2 mM Ca^2+,permitted the detection of the native CIB2 band even after 30 min
same,dimerization signal by SPR,[2],"sensorgrams, except for some non-specific bulk effect; also recorded: In no case was a signal detected; also recorded: SPR did not detect dimerization"

# From article PMC6803640, “Oligomeric state, hydrodynamic properties and target recognition of human Calcium and Integrin Binding protein 2 (CIB2)” (Scientific Reports, 2019)
